Residue numbers refer to the chain shown, from its start.
T1: FcgRIIaH (human, UniProt P12318 34-217)
T1 construct: extracellular domain; also called FcγRIIa H; FcγRIIa type H; not shown: His tag at the C terminus
T1 sequence (looked up): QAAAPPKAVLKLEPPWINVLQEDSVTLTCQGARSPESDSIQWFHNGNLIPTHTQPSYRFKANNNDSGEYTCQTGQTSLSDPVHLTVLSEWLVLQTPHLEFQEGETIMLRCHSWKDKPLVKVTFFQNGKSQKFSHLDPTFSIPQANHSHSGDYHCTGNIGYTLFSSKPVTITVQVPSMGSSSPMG

T2: FcgRIIb (human, UniProt P31994 43-217)
T2 construct: extracellular domain; also called FcγRIIb; CD32B; not shown: His tag at the C terminus
T2 sequence (looked up): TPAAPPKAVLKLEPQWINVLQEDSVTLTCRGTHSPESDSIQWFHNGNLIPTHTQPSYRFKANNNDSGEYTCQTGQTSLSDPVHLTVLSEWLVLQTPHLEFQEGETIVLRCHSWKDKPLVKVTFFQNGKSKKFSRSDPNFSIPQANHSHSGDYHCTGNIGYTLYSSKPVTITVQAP

T3: FcgRIIaR (human, UniProt P12318 34-217)
T3 construct: extracellular domain; also called FcγRIIa R; FcγRIIa type R; not shown: His tag at the C terminus
T3 sequence (looked up): T1 sequence (looked up) with H134R

B1: GpH7-G1d/GpL16-k0 (antibody, human IgG1, kappa)
heavy: not shown
light: DIVMTQSPLSLPVTPGEPASISCQASESLVHSNRNTYLHWYLQKPGQSPQLLIYKVSNRFSGVPDRFSGSGSGTDFTLKISRVEAEDVGVYYCSQNTHVPPTFGQGTKVEIERTVAAPSVFIFPPSDEQLKSGTASVVCLLNNFYPREAKVQWKVDNALQSGNSQESVTEQDSKDSTYSLSSTLTLSKADYEKHKVYACEVTHQGLSSPVTKSFNRGEC
notes: Anti-glypican-3 IgG1 whose H chain lacks the C-terminal Gly and Lys; Used as the native IgG1 control; also called native IgG1
B2: H240-Kn225/H240-Hl076/L73-k0 (antibody, human IgG1, kappa)
heavy 1: QDQLVQSGAEVKKPGASVKVSCKASGFNIKDTYIQWVRQAPGQGLEWMGRIDPLRKQTKYREKFEGRVTITADTSTNTAYMELSSLRSEDTAVYYCVRSGREFDYWGQGTLVTVSSASTKGPSVFPLAPSSKSTSGGTAALGCLVKDYFPEPVTVSWNSGALTSGVHTFPAVLQSSGLYSLSSVVTVPSSSLGTQTYICNVNHKPSNTKVDKKVEPKSCDKTHTCPPCPAPEYQWGPIVFLFPPKPKDTLMISRTPEVTCVVVDVSDEEPEVKFNWYVDGVEVHNAKTKPREEQYNATYRVVSVLTVLHQDWLNGKEYKCKVSNKALPAPIEKTISKAKGQPREPQVCTLPPSRDELTKNQVSLWCLVKGFYPSDIAVEWESNGQPENNYKTTPPVLDSDGSFFLYSKLTVDKSRWQQGNVFSCSVMHEALHNHYTQKSLSLSP
heavy 2: QDQLVQSGAEVKKPGASVKVSCKASGFNIKDTYIQWVRQAPGQGLEWMGRIDPLRKQTKYREKFEGRVTITADTSTNTAYMELSSLRSEDTAVYYCVRSGREFDYWGQGTLVTVSSASTKGPSVFPLAPSSKSTSGGTAALGCLVKDYFPEPVTVSWNSGALTSGVHTFPAVLQSSGLYSLSSVVTVPSSSLGTQTYICNVNHKPSNTKVDKKVEPKSCDKTHTCPPCPAPELLGGPSVFLFPPKPKDTLMISRTPEVTCVVVDVSHEEPEVKFNWYVDGVEVHNAKTKPREEQYNSTYRVVSVLTVLHQDWLNGKEYKCKVSNDALPMPIEETISKAKGQPREPQVYTLPPSRCELTKNQVSLSCAVKGFYPSDIAVEWESNGQPENNYKTTPPVLDSDGSFFLVSKLTVDKSRWQQGNVFSCSVMHEALHNHYTQKSLSLSP
light: DIQMTQSPSSLSASVGDRVTITCRASQDIHKYIAWYQQKPGQAPRLLIQYTSTLQPGVPSRFSGSGSGTDYTFTISSLQPEDIATYYCLQYEQLRTFGGGTKVEIKRTVAAPSVFIFPPSDEQLKSGTASVVCLLNNFYPREAKVQWKVDNALQSGNSQESVTEQDSKDSTYSLSSTLTLSKADYEKHKVYACEVTHQGLSSPVTKSFNRGEC
B3: H240-afucosyl_G1d/L73-k0 (antibody, human IgG1, kappa)
heavy: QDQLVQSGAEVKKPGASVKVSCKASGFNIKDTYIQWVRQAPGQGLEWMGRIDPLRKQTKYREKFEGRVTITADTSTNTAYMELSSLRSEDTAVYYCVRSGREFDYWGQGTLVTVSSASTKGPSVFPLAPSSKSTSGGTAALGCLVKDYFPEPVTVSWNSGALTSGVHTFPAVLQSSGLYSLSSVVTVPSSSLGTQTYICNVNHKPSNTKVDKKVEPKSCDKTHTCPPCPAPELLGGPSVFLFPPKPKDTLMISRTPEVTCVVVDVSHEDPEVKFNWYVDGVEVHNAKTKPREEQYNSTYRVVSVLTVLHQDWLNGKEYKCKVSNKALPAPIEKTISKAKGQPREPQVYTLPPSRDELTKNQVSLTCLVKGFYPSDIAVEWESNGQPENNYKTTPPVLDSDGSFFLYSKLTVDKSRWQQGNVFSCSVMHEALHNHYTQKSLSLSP
light: B2 light
modifications: fucose removed from the sugar chain (afucosylated)
notes: Anti-epiregulin IgG1, afucosylated; also called afucosylated antibody
B4: H240-Kn229/H240-Hl068/L73-k0 (antibody, human IgG1, kappa)
heavy 1: B2 heavy 1 with Q234Y, E269D, A326D
heavy 2: B2 heavy 2 with M329K
light: B2 light
B5: GpH7-G1d/GpL16-k0 (antibody, human IgG1, kappa)
heavy: not shown
light: B1 light
notes: Anti-glypican-3 IgG1 with C-terminal Gly and Lys removed; also called native IgG1
B6: GpH7-A5/GpH7-B3/GpL16-k0 (antibody, human IgG1, kappa)
heavy 1: not shown
heavy 2: not shown
light: B1 light
notes: also called A5/B3; HeCon Ab
B7: GpH7-TA7/GpH7-B78/GpL16-k0 (antibody, human IgG1, kappa)
heavy 1: QVQLVQSGAEVKKPGASVTVSCKASGYTFTDYEMHWIRQPPGEGLEWIGAIDPKTGDTAYSESFQDRVTLTADKSTSTAYMELSSLTSEDTAVYYCTRFYSYTYWGQGTLVTVSSASTKGPSVFPLAPSSKSTSGGTAALGCLVKDYFPEPVTVSWNSGALTSGVHTFPAVLQSSGLYSLSSVVTVPSSSLGTQTYICNVNHKPSNTKVDKKVEPKSCDKTHTCPPCPAPEYLWGPSVFLFPPKPKDTLMISRTPEVTCVVVDVSHEDPEVKFNWYVDGVEVHNAKTKPREEQYNATYRVVSVLTVLHQDWLNGKEYKCKVSNKALPAPIEKTISKAKGQPREPQVYTLPPSRKELTKNQVSLTCLVKGFYPSDIAVEWESNGQPENNYKTTPPVLDSDGSFFLYSKLTVDKSRWQQGNVFSCSVMHEALHNRYTQKSLSLSP
heavy 2: B7 heavy 1 with Y232L, W234G, S237D, A296S, A328L, I330E, K354D, R433H, K437E
light: B1 light
notes: Heterodimerized anti-glypican-3 IgG1; also called TA7/B78
B8: GpH7-TA7/GpH7-B3/GpL16-k0 (antibody, human IgG1, kappa)
heavy 1: B7 heavy 1
heavy 2: not shown
light: B1 light
notes: Heterodimerized anti-glypican-3 IgG1; also called TA7/B3
B9: GpH7-TA7/GpH7-TA45/GpL16-k0 (antibody, human IgG1, kappa)
heavy 1: B7 heavy 1
heavy 2: B7 heavy 1 with K354D, R433H, K437E
light: B1 light
notes: Anti-glypican-3 IgG1; also called TA7/TA45
B10: GpH7-A57/GpH7-B78/GpL16-k0 (antibody, human IgG1, kappa)
heavy 1: B7 heavy 1 with Y232L, W234G, S237D, A296S, A328L, I330E
heavy 2: B7 heavy 1 with Y232L, W234G, S237D, A296S, A328L, I330E, K354D, R433H, K437E
light: B1 light
notes: Anti-glypican-3 IgG1; also called A57/B78
B11: GpH7-A5/GpH7-B78/GpL16-k0 (antibody, human IgG1, kappa)
heavy 1: not shown
heavy 2: B7 heavy 1 with Y232L, W234G, S237D, A296S, A328L, I330E, K354D, R433H, K437E
light: B1 light
notes: Heterodimerized anti-glypican-3 IgG1; also called A5/B78

Target: T4, FcγRIIIa (human, UniProt P08637 17-208)
T4 construct: extracellular domain; also called FcgRIIIa; CD16A; not shown: His tag attached to the C terminus
Experiment: ratio of SPR KDs: KD of GpH7-G1d/GpL16-k0 divided by KD of this antibody
Experimental: The prepared antibodies were compared for the FcγRIIIa-binding activity using, as an indicator, KD for FcγRIIIa that was determined according to the method described in Reference Example 2.
(§1) Analysis of interaction between objective antibody and the FcγR was carried out using Biacore T100 (GE Healthcare). HBS-EP+ (GE Healthcare) was used as the running buffer, and the measurement temperature was set to 25° C. Chips produced by immobilizing the antigen peptide by the amine coupling method to a Series S Sencor Chip CM5 (GE Healthcare), or alternatively, chips produced by allowing preliminarily biotinylated antigen peptides to interact with and immobilize onto a Series S Sensor Chip SA (certified) (GE Healthcare) were used. Antibodies of interest were captured onto an antigen peptide-immobilized chip, and allowed to interact to each FcγR diluted with running buffer. To regenerate and repeatedly use the chip, the antibodies captured on the chip were washed off by reacting 10 mM glycine-HCl, pH 1.5.
Specifically, to calculate association rate constant ka (L/mol/s) and dissociation rate constant kd (1/s), sensorgrams obtained by measurement were processed for global fitting by Biacore Evaluation Software using 1:1 Langmuir binding model and dissociation constant KD (mol/1) was calculated from the resulting values.

T4 sequence (P08637 17-208): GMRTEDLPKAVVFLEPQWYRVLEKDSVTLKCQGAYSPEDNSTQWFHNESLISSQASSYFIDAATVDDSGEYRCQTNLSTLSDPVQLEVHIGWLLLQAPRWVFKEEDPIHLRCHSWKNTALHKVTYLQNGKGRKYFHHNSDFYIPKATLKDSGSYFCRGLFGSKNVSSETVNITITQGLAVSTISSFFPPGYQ

KD ratio 1 | Binder
1 fold | B1

Target: T5, FcgRIIIaF (human, UniProt P08637 17-208)
T5 construct: extracellular domain; also called FcγRIIIa F; not shown: His tag at the C terminus
Experiment: SPR (Biacore); KD of H240-Kn033/H240-Hl033/L73-k0 divided by KD of the variant
Experimental: (§2) Binding of the produced variants to FcgRIa, FcgRIIaR, FcgRIIaH, FcgRIIb, FcgRIIIaF, and FcgRIIIaV was measured according to the method of Reference Example 8.
(§3) Analysis of interaction between objective antibody and the FcγR was carried out using Biacore T100 (GE Healthcare), Biacore T200, Biacore A100, and Biacore 4000. HBS-EP+ (GE Healthcare) was used as the running buffer, and the measurement temperature was set to 25° C. Chips produced by immobilizing the antigen peptide by the amine coupling method to a Series S sensor Chip CM5 (GE Healthcare), chips produced by allowing preliminarily biotinylated antigen peptides to interact with and immobilize onto a Series S Sensor Chip SA (certified) (GE Healthcare), chips produced by immobilizing Protein L (ACTIGEN, BioVision) to Series S Sencor Chip CM5 (GE Healthcare), or chips produced by immobilizing Protein A/G (Thermo Scientific) to Series S Sencor Chip CM5 (GE Healthcare) were used. Antibodies of interest were captured onto these chips, and allowed to interact to each FcγR diluted with running buffer. To regenerate and repeatedly use the chip, the antibodies captured onto the chip were washed off by reacting 10 mM glycine-HCl, pH 1.5.

T5 sequence (P08637 17-208): as above

fold 3aF | Binder
264 fold | B2
3.7 fold | B3
138 fold | B4

Target: T1, FcgRIIaH
Experiment: as above
Experimental: as §2, §3

fold 2aH | Binder
3.1 fold | B2
0.7 fold | B3
13.3 fold | B4

Target: T6, FcgRIIIaV (human, UniProt P08637 17-208)
T6 construct: extracellular domain; also called FcγRIIIa V; not shown: His tag at the C terminus
Experiment: as above
Experimental: as §2, §3

T6 sequence (P08637 17-208 F176V limits assumed): as the sequence (P08637 17-208) above, with F160V counted along it

fold 3aV | Binder
253 fold | B2
7 fold | B3
62.3 fold | B4

Target: T2, FcgRIIb
Experiment: as above
Experimental: as §2, §3

fold 2b | Binder
0.6 fold | B2
1.3 fold | B3
16.5 fold | B4

Target: T3, FcgRIIaR
Experiment: as above
Experimental: as §2, §3

fold 2aR | Binder
1.5 fold | B2
1.5 fold | B3
46.3 fold | B4

Target: T7, FcγRIIIa F extracellular domain with C-terminal His tag (human, UniProt P08637 17-208)
T7 construct: extracellular domain; Soluble receptor, F158 allotype; also called FcgRIIIa F; FcgRIIIaF; not shown: His tag at the C terminus
Experiment: SPR (Biacore); KD for FcγRIIb divided by KD for FcγRIIIa F
Experimental: The prepared antibodies were assayed as to the KDs for FcγRIIIa and FcγRIIb according to the method described in Reference Example 2.
as §1

T7 sequence (P08637 17-208): as the sequence (P08637 17-208) above

FcγRIIIa F/FcγRIIb ratio | Binder
2.5 | B5
1.9 | B6
244 | B7
14 | B8
5.3 | B9
100 | B10
7.9 | B11

Reference: patent US20150344570A1 (published 2015)
